Reference: US20190351015

B1: Siah1 (protein)
chain: MSRQTATALPTGTSKCPPSQRVPALTGTTASNNDLASLFECPVCFDYVLPPILQCQSGHLVCSNCRPKLTCCPTCRGPLGSIRNLAMEKVANSVLFPCKYASSGCEITLPHTEKADHEELCEFRPYSCPCPGASCKWQGSLDAVMPHLMHQHKSITTLQGEDIVFLATDINLPGAVDWVMMQSCFGFHFMLVLEKQEKYDGHQQFFAIVQLIGTRKQAENFAYRLELNGHRRRLTWEATPRSIHEGIATAIMNSDCLVFDTSIAQLFAENGNLGINVTISMC
Degradation by Siah1 (Nkx3.2 (123-320)): -
Degradation by Siah1 (Nkx3.2 (1-333)): +++
Degradation by Siah1 (Nkx3.2 (150-320)): -
Degradation by Siah1 (Nkx3.2 (165-310)): ++
Degradation by Siah1 (Nkx3.2 (99-333)): ++
Degradation by Siah1 (Nkx3.2 (153-318)): -
Degradation by Siah1 (Nkx3.2 (99-327)): +++
Degradation by Siah1 (Nkx3.2 (159-314)): ++
Degradation by Siah1 (Nkx3.2 (123-333)): -
Degradation by Siah1 (Nkx3.2 (110-324)): +++
Degradation by Siah1 (Nkx3.2 (1-307)): -
Degradation by Siah1 (Nkx3.2 (130-320)): -
Degradation by Siah1 (Nkx3.2 (1-320)): +
Degradation by Siah1 (Nkx3.2 (112-333)): ++
Degradation by Siah1 (Nkx3.2 (99-330)): +++
Degradation by Siah1 (Nkx3.2 (105-327)): ++
Degradation by Siah1 (Nkx3.2 (99-320)): +
Degradation by Siah1 (Nkx3.2 (156-316)): ++
Degradation by Siah1 (Nkx3.2 (112-320)): -
Degradation by Siah1 (Nkx3.2 (162-312)): ++
Degradation by Siah1 (Nkx3.2 (42-333)): +++
